biological target: T1, recombinant human ROR1 extracellular domain (human, UniProt Q01973 30-406); assay: ELISA with prolonged wash, soluble Fab on coated huROR1-ECD
T1 construct: biotinylated for the filter lifts; also called huROR1-ECD; human ROR1-ECD
Method: (§1) The previously described filter lift assay provides a visual, qualitative assessment of antigen binding (Example 1). In order to assess the ROR1 binding activity of Ab1 Fab in a more quantitative fashion, an ELISA assay was developed. A 96-well Costar-3366 plate was coated with 50 μL/well of 1 μg/mL human ROR1-ECD (ACROBiosystems, cat. #RO1-H522y) in PBS overnight at 4° C. The plate was rinsed once with PBS-T and blocked with 100 μL/well of 5% M-P for 1 h at 25° C. Fab samples were serially diluted 3-fold using 5% M-P and 50 μL/well was incubated for 1 h at 25° C. The plate was washed three times with PBS-T and 50 μL/well anti-human kappa, and HRP conjugate (Southern Biotech, cat. #2060-05) diluted 10,000-fold in 5% M-P was added for 1 h at 25° C. In certain assays (extended wash format), the plate was placed in large volumes (up to 1 L) of PBS-T and incubated, with mixing, for 2-5 h prior to the addition of anti-human kappa, HRP conjugate. The plate was washed three times with PBS-T, and developed with 50 μL/well 1-Step Ultra TMB-ELISA (Thermo Scientific, cat. #34028). The reaction was terminated by the addition of 2 N H2504 and the A450 was determined using a Spectramax plate reader.
(§2) Subsequently, the libraries were screened by capture lift to identify the strongest binding variants. The identity of the variants was determined by DNA sequencing and the relative affinities were characterized using an ELISA (described in Example 2) modified to enable further discrimination between the highest affinity variants. Specifically, following the initial incubation with soluble Fab, the plates were washed for a prolonged time (>1 h) in large volumes of PBS-T. The plates were then developed as described in Example 2.

T1 sequence (Q01973 30-406 limits assumed): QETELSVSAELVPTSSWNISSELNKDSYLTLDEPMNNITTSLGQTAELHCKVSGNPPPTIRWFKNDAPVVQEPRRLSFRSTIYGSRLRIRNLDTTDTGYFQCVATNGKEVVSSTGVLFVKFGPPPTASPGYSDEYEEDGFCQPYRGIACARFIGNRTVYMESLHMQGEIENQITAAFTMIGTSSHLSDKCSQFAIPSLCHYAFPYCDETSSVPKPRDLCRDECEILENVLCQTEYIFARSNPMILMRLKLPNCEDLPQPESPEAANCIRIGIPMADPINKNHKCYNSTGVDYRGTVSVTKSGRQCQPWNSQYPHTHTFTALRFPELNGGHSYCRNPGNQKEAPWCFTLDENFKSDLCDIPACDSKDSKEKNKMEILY

Kd | Binder
3.9 nM | Ab1 Fab variant H1 T32A + L1 A25P, K29S + L2 T69R (Fab, V domains shown, Fab) VH: QVQLQESGPGLVKPSQTLSLTCTVSGYAFAAYNIHWVRQAPGQGLEWMGSFDPYDGGSSYNQKFKDRLTISKDTSKNQVVLTMTNMDPVDTATYYCARGWYYFDYWGHGTLVTVSS VL: DIVMTQTPLSLPVTPGEPASISCRPSSSISKYLAWYQQKPGQAPRLLIYSGSRLQSGIPPRFSGSGYGTDFTLTINNIESEDAAYYFCQQHDESPYTFGEGTKVEIK
3.3 nM | Ab1 Fab variant H1 T32A + L1 K29E (Fab, V domains shown, Fab) VH: QVQLQESGPGLVKPSQTLSLTCTVSGYAFAAYNIHWVRQAPGQGLEWMGSFDPYDGGSSYNQKFKDRLTISKDTSKNQVVLTMTNMDPVDTATYYCARGWYYFDYWGHGTLVTVSS VL: DIVMTQTPLSLPVTPGEPASISCRASESISKYLAWYQQKPGQAPRLLIYSGSTLQSGIPPRFSGSGYGTDFTLTINNIESEDAAYYFCQQHDESPYTFGEGTKVEIK
4.8 nM | Ab1 Fab variant H1 T32A + L1 K29E + L2 T69R (Fab, V domains shown, Fab) VH: QVQLQESGPGLVKPSQTLSLTCTVSGYAFAAYNIHWVRQAPGQGLEWMGSFDPYDGGSSYNQKFKDRLTISKDTSKNQVVLTMTNMDPVDTATYYCARGWYYFDYWGHGTLVTVSS VL: DIVMTQTPLSLPVTPGEPASISCRASESISKYLAWYQQKPGQAPRLLIYSGSRLQSGIPPRFSGSGYGTDFTLTINNIESEDAAYYFCQQHDESPYTFGEGTKVEIK

biological target: T1, recombinant human ROR1 extracellular …; assay: as above; remark: another data set of the same source
Method: as §1, §2

Kd | Binder
3.9 nM | Ab1 Fab variant H1 T32A + H2 F58V, S69V, N71H (Fab, V domains shown, Fab) VH: QVQLQESGPGLVKPSQTLSLTCTVSGYAFAAYNIHWVRQAPGQGLEWMGSVDPYDGGSVYHQKFKDRLTISKDTSKNQVVLTMTNMDPVDTATYYCARGWYYFDYWGHGTLVTVSS VL: DIVMTQTPLSLPVTPGEPASISCRASKSISKYLAWYQQKPGQAPRLLIYSGSTLQSGIPPRFSGSGYGTDFTLTINNIESEDAAYYFCQQHDESPYTFGEGTKVEIK
2.1 nM | Ab1 Fab variant H1 T32A + H2 N71H (Fab, V domains shown, Fab) VH: QVQLQESGPGLVKPSQTLSLTCTVSGYAFAAYNIHWVRQAPGQGLEWMGSFDPYDGGSSYHQKFKDRLTISKDTSKNQVVLTMTNMDPVDTATYYCARGWYYFDYWGHGTLVTVSS VL: DIVMTQTPLSLPVTPGEPASISCRASKSISKYLAWYQQKPGQAPRLLIYSGSTLQSGIPPRFSGSGYGTDFTLTINNIESEDAAYYFCQQHDESPYTFGEGTKVEIK
8 nM | Ab1 Fab variant H1 T32A + H2 F58V, G66E, S69V (Fab, V domains shown, Fab) VH: QVQLQESGPGLVKPSQTLSLTCTVSGYAFAAYNIHWVRQAPGQGLEWMGSVDPYDEGSVYNQKFKDRLTISKDTSKNQVVLTMTNMDPVDTATYYCARGWYYFDYWGHGTLVTVSS VL: DIVMTQTPLSLPVTPGEPASISCRASKSISKYLAWYQQKPGQAPRLLIYSGSTLQSGIPPRFSGSGYGTDFTLTINNIESEDAAYYFCQQHDESPYTFGEGTKVEIK
3.3 nM | Ab1 Fab variant H1 T32A + H2 S69V (Fab, V domains shown, Fab) VH: QVQLQESGPGLVKPSQTLSLTCTVSGYAFAAYNIHWVRQAPGQGLEWMGSFDPYDGGSVYNQKFKDRLTISKDTSKNQVVLTMTNMDPVDTATYYCARGWYYFDYWGHGTLVTVSS VL: DIVMTQTPLSLPVTPGEPASISCRASKSISKYLAWYQQKPGQAPRLLIYSGSTLQSGIPPRFSGSGYGTDFTLTINNIESEDAAYYFCQQHDESPYTFGEGTKVEIK
2.7 nM | Ab1 Fab variant H1 T32A + H2 G66E (Fab, V domains shown, Fab) VH: QVQLQESGPGLVKPSQTLSLTCTVSGYAFAAYNIHWVRQAPGQGLEWMGSFDPYDEGSSYNQKFKDRLTISKDTSKNQVVLTMTNMDPVDTATYYCARGWYYFDYWGHGTLVTVSS VL: DIVMTQTPLSLPVTPGEPASISCRASKSISKYLAWYQQKPGQAPRLLIYSGSTLQSGIPPRFSGSGYGTDFTLTINNIESEDAAYYFCQQHDESPYTFGEGTKVEIK
5 nM | Ab1 Fab variant H1 T32A + H2 F58I, G66E (Fab, V domains shown, Fab) VH: QVQLQESGPGLVKPSQTLSLTCTVSGYAFAAYNIHWVRQAPGQGLEWMGSIDPYDEGSSYNQKFKDRLTISKDTSKNQVVLTMTNMDPVDTATYYCARGWYYFDYWGHGTLVTVSS VL: DIVMTQTPLSLPVTPGEPASISCRASKSISKYLAWYQQKPGQAPRLLIYSGSTLQSGIPPRFSGSGYGTDFTLTINNIESEDAAYYFCQQHDESPYTFGEGTKVEIK
2.2 nM | Ab1 Fab variant H1 T32A + H2 F58I, N71H (Fab, V domains shown, Fab) VH: QVQLQESGPGLVKPSQTLSLTCTVSGYAFAAYNIHWVRQAPGQGLEWMGSIDPYDGGSSYHQKFKDRLTISKDTSKNQVVLTMTNMDPVDTATYYCARGWYYFDYWGHGTLVTVSS VL: DIVMTQTPLSLPVTPGEPASISCRASKSISKYLAWYQQKPGQAPRLLIYSGSTLQSGIPPRFSGSGYGTDFTLTINNIESEDAAYYFCQQHDESPYTFGEGTKVEIK

Second part, the binder before the results:

Binder | Kd
Ab1 Fab variant H1 T32A + H2 F58I (Fab, V domains shown, Fab) VH: QVQLQESGPGLVKPSQTLSLTCTVSGYAFAAYNIHWVRQAPGQGLEWMGSIDPYDGGSSYNQKFKDRLTISKDTSKNQVVLTMTNMDPVDTATYYCARGWYYFDYWGHGTLVTVSS VL: DIVMTQTPLSLPVTPGEPASISCRASKSISKYLAWYQQKPGQAPRLLIYSGSTLQSGIPPRFSGSGYGTDFTLTINNIESEDAAYYFCQQHDESPYTFGEGTKVEIK | 4.5 nM
Ab1 Fab variant H1 T32A + H2 F58V, N71H (Fab, V domains shown, Fab) VH: QVQLQESGPGLVKPSQTLSLTCTVSGYAFAAYNIHWVRQAPGQGLEWMGSVDPYDGGSSYHQKFKDRLTISKDTSKNQVVLTMTNMDPVDTATYYCARGWYYFDYWGHGTLVTVSS VL: DIVMTQTPLSLPVTPGEPASISCRASKSISKYLAWYQQKPGQAPRLLIYSGSTLQSGIPPRFSGSGYGTDFTLTINNIESEDAAYYFCQQHDESPYTFGEGTKVEIK | 2.4 nM
Ab1 Fab variant H1 T32A + H2 F58I, G66E, N71H (Fab, V domains shown, Fab) VH: QVQLQESGPGLVKPSQTLSLTCTVSGYAFAAYNIHWVRQAPGQGLEWMGSIDPYDEGSSYHQKFKDRLTISKDTSKNQVVLTMTNMDPVDTATYYCARGWYYFDYWGHGTLVTVSS VL: DIVMTQTPLSLPVTPGEPASISCRASKSISKYLAWYQQKPGQAPRLLIYSGSTLQSGIPPRFSGSGYGTDFTLTINNIESEDAAYYFCQQHDESPYTFGEGTKVEIK | 3.4 nM
Ab1 Fab variant H1 T32A + H2 F58V, G66E (Fab, V domains shown, Fab) VH: QVQLQESGPGLVKPSQTLSLTCTVSGYAFAAYNIHWVRQAPGQGLEWMGSVDPYDEGSSYNQKFKDRLTISKDTSKNQVVLTMTNMDPVDTATYYCARGWYYFDYWGHGTLVTVSS VL: DIVMTQTPLSLPVTPGEPASISCRASKSISKYLAWYQQKPGQAPRLLIYSGSTLQSGIPPRFSGSGYGTDFTLTINNIESEDAAYYFCQQHDESPYTFGEGTKVEIK | 3 nM
Ab1 Fab variant H1 T32A + H2 F58I, S69V (Fab, V domains shown, Fab) VH: QVQLQESGPGLVKPSQTLSLTCTVSGYAFAAYNIHWVRQAPGQGLEWMGSIDPYDGGSVYNQKFKDRLTISKDTSKNQVVLTMTNMDPVDTATYYCARGWYYFDYWGHGTLVTVSS VL: DIVMTQTPLSLPVTPGEPASISCRASKSISKYLAWYQQKPGQAPRLLIYSGSTLQSGIPPRFSGSGYGTDFTLTINNIESEDAAYYFCQQHDESPYTFGEGTKVEIK | 8.5 nM
Ab1 Fab variant H1 T32A + H2 F58V (Fab, V domains shown, Fab) VH: QVQLQESGPGLVKPSQTLSLTCTVSGYAFAAYNIHWVRQAPGQGLEWMGSVDPYDGGSSYNQKFKDRLTISKDTSKNQVVLTMTNMDPVDTATYYCARGWYYFDYWGHGTLVTVSS VL: DIVMTQTPLSLPVTPGEPASISCRASKSISKYLAWYQQKPGQAPRLLIYSGSTLQSGIPPRFSGSGYGTDFTLTINNIESEDAAYYFCQQHDESPYTFGEGTKVEIK | 3.2 nM
Ab1 Fab variant H1 T32A + H2 G66E, S69V, N71H (Fab, V domains shown, Fab) VH: QVQLQESGPGLVKPSQTLSLTCTVSGYAFAAYNIHWVRQAPGQGLEWMGSFDPYDEGSVYHQKFKDRLTISKDTSKNQVVLTMTNMDPVDTATYYCARGWYYFDYWGHGTLVTVSS VL: DIVMTQTPLSLPVTPGEPASISCRASKSISKYLAWYQQKPGQAPRLLIYSGSTLQSGIPPRFSGSGYGTDFTLTINNIESEDAAYYFCQQHDESPYTFGEGTKVEIK | 3.2 nM

Source: patent US20230021388A1 (VELOSBIO, published 2023)
